According to patent US20090042291A1 (published 2009):

Tests used:
[1] = molecular target: T1, human FcγRIIb on cells (HEK293T cells transfected with human FcγRIIb cDNA; primary human B cells) (human, UniProt P31994 43-310); assay: flow cytometry on HEK293T cells transfected with human FcγRIIb, PE anti-human Fab detection
T1 construct: whole, on cells; also called CD32b
T1 sequence (looked up): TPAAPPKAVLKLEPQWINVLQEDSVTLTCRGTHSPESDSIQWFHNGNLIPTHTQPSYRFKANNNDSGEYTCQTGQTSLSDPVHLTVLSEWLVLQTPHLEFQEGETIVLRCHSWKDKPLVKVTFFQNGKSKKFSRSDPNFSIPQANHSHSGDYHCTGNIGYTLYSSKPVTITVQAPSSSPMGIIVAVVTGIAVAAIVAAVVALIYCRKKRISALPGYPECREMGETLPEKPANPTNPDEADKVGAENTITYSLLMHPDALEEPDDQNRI

[2] = molecular target: T2, human FcγRIIb receptor protein (R&D Systems) (human, UniProt P31994 46-217, limits assumed); assay: Biacore SPR
T2 construct: Bought
T2 sequence (looked up): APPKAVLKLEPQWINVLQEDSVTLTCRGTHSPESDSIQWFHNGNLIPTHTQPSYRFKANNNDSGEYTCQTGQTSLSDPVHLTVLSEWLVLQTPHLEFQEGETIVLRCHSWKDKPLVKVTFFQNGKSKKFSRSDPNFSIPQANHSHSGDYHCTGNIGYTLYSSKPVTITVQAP

B1: anti-CD19 HuAM4G7 IgG1 S267E/L328F (antibody)
chain 1: not shown
chain 2: DIVMTQSPATLSLSPGERATLSCRSSKSLQNVNGNTYLYWFQQKPGQSPQLLIYRMSNLNSGVPDRFSGSGSGTEFTLTISSLEPEDFAVYYCMQHLEYPITFGAGTKLEIKRTVAAPSVFIFPPSDEQLKSGTASVVCLLNNFYPREAKVQWKVDNALQSGNSQESVTEQDSKDSTYSLSSTLTLSKADYEKHKVYACEVTHQGLSSPVTKSFNRGEC
[1]
  EC50 fold relative to WT IgG1: ~320 fold

B2: anti-CD19 HuAM4G7 IgG1 S267A (antibody)
chain 1: not shown
chain 2: B1 chain 2
[2]
  Kd: 408 nM
  fold relative to native IgG1: 3.6 fold

B3: anti-CD19 HuAM4G7 IgG1 S267E (antibody)
chain 1: not shown
chain 2: B1 chain 2
[2]
  Kd: 71.9 nM
  fold relative to native IgG1: 20.4 fold
